Experimental data taken from PMC2642969 (Molecular cell, 2008).
Numbering of substitutions follows the chain as printed. In names and notes the source's numbering stands. Like-named read-outs stand apart in the source and are kept apart here.

T1: FLAG-dKDM4A (recombinant, Sf21) (Drosophila melanogaster, UniProt Q9V333 1-495)
T1 sequence (looked up): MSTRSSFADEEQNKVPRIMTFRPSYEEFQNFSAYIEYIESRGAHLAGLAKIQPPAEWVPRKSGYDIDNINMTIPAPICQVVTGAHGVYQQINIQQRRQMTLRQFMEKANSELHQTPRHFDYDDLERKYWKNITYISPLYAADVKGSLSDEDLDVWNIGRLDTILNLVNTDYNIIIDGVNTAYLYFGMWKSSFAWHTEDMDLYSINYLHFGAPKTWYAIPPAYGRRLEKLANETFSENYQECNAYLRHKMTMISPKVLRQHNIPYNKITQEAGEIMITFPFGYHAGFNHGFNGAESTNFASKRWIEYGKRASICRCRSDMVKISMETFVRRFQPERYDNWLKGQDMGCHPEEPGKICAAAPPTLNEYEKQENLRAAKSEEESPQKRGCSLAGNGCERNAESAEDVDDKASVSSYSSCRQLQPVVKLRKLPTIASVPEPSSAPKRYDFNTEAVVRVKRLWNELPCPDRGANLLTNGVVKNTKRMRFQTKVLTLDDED

B1: HA-HP1a (recombinant, full-length) (natural protein, Drosophila melanogaster, UniProt P05205 1-206, looked up)
chain: MGKKIDNPESSAKVSDAEEEEEEYAVEKIIDRRVRKGKVEYYLKWKGYPETENTWEPENNLDCQDLIQQYEASRKDEEKSAASKKDRPSSSAKAKETQGRASSSTSTASKRKSEEPTAPSGNKSKRTTDAEQDTIPVSGSTGFDRGLEAEKILGASDNNGRLTFLIQFKGVDQAEMVPSSVANEKIPRMVIHFYEERLSWYSDNED
B2: HA-HP1a-V26M (natural protein, Drosophila melanogaster, UniProt P05205 1-206, looked up)
chain: B1 chain with V26M

Key:
[1] = molecular target: T1, FLAG-dKDM4A (recombinant, Sf21); assay: co-IP
[2] = molecular target: T1, FLAG-dKDM4A (recombinant, Sf21); assay: co-IP; remark: listed apart in the source

Row | Binder | binding result [1] | binding result [2]
1 | B1 | binds | 
2 | B2 |  | binds
